Substitutions are numbered along the chain they refer to.
T1: Cyno Semaphorin3A-Sema Domain, TPP-19122 (cynomolgus (Macaca fascicularis), UniProt Q63548 21-569 (rat entry), limits assumed)
T1 construct: produced inhouse
T1 chain: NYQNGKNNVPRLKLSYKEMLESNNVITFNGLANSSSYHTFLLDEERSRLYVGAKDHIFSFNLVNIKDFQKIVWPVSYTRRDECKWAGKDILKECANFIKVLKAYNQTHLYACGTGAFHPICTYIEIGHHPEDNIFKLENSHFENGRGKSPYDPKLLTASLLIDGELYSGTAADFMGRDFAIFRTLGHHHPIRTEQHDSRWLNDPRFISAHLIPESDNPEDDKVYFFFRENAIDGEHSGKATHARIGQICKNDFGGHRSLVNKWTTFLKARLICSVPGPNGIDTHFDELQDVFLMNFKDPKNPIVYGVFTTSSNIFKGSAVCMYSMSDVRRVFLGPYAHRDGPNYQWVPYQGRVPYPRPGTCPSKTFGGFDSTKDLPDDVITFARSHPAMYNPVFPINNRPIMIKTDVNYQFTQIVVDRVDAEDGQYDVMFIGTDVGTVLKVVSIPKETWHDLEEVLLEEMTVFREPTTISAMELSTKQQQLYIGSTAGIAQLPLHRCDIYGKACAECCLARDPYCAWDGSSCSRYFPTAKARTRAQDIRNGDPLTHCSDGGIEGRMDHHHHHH

T2: Mouse Semaphorin3A-Sema Domain, TPP-19069 (mouse, UniProt O08665 21-569)
T2 construct: produced inhouse
T2 sequence: T1 chain with Q3A, K102E, I126V, E138Q, N139D, F296S, I444V, V455I, I489V

T3: Human Semaphorin3A-Sema Domain, TPP-19068 (human, UniProt Q14563 21-569)
T3 construct: produced inhouse in HEK293-6E; also called human monovalent Sema3A domain
T3 sequence: T1 chain with N61D, R205K, P213S, I303V, I396M, M402V, H450Y, T468A, I489V, S521A

T4: Pig Semaphorin3A-Sema Domain, TPP-20176 (pig, UniProt Q63548 21-569 (rat entry))
T4 construct: produced inhouse
T4 chain: T1 chain with N139D, S237T, F296S, I303V, I483V, T486A, I489V

B1: TPP-23298 (antibody, human IgG4 S228P, lambda, V domains shown)
VH: EVQLLESGGGLVQPGGSLRLSCAASGFTFYSYAMSWVRQAPGKGLEWVSAIGTGGDTYYADSVKGRFTISRDNSKNTLYLQMNSLRAEDTAVYYCARRDDYTSRDAFDYWGQGTLVTVSS
VL: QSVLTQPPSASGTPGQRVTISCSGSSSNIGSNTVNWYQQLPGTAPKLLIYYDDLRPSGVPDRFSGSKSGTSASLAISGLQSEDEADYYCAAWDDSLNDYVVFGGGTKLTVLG
B2: TPP-15370 (antibody, human IgG1, lambda, V domains shown)
VH: B1 VH with Y30S, A33G, S35H, K64M, Y109V
VL: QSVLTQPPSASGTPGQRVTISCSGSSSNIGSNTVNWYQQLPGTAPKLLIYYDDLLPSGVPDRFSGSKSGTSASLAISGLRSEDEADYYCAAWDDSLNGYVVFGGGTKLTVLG
notes: human IgG1; also called IgG1, hit from panning; parental mAb
B3: TPP-17755 (antibody, human IgG1, lambda, V domains shown)
VH: EVQLLESGGGLVQTGGSLRLSCAASGFTFSDYAMSWVRQAPGKGLEWVSWIYYDSGSKYYADSVKGRFTISRDNSKNTLYLQMNSLRAEDTAVYYCAKLNGDFDYWGQGTLVTVSS
VL: QSVLTQPPSASGTPGQRVTISCSGSSSNIGNNDVSWYQQLPGTAPKLLIYADSHRPSGVPDRFSGSKSGTSASLAISGLRSEDEADYYCGAWDSSLSGYVFGGGTKLTVLG
notes: also called Samsung; Samsung Prior Art F11
B4: TPP-15374 (antibody, human IgG1, lambda, V domains shown)
VH: EVQLLESGGGLVQPGGSLRLSCAASGFTFSSYEMNWVRQAPGKGLEWVSGISWNSGSIGYADSVKGRFTISRDNSKNTLYLQMNSLRAEDTAVYYCARSGYSSSWFDPDFDYWGQGTLVTVSS
VL: QSVLTQPPSASGTPGQRVTISCTGSSSNIGAGYDVHWYQQLPGTAPKLLIYGNSNRPSGVPDRFSGSKSGTSASLAISGLRSEDEADYYCSSYAGSNPYVVFGGGTKLTVLG
notes: as for B2
B5: TPP-30788 (antibody, human IgG1, kappa, V domains shown)
VH: EVQLVESGGGLVQPGGSLRLSCAASGFTFSSYYMSWVRQAPGKGLEWVSTIIKSGGYAYYPDSVKDRFTISRDNSKNTLYLQMSSLRAEDTAVYYCVRGGQGAMDYWGQGTTVTVSS
VL: EIVLTQSPATLSLSPGERATLSCRASQSIGDYLHWYQQKPGQAPRLLIKYASQSISGIPARFSGSGSGTDFTLTITSLEPEDFAVYYCQQGYSFPYTFGGGTKLEIKR
notes: prior art, WO 2020/225400; also called BI clone I; Böhringer (BI) Clone I
B6: TPP-30791 (antibody, human IgG1, kappa, V domains shown)
VH: B5 VH with V12L, P14L, Y80N, S84N, R98K
VL: B5 VL with T76S
notes: prior art, WO 2020/225400; also called BI clone IV; Böhringer (BI) Clone IV
B7: TPP-30790 (antibody, human IgG1, kappa, V domains shown)
VH: B5 VH with P14L, S84N, R98K
VL: B5 VL with K49Y, T76S
notes: prior art, WO 2020/225400; also called BI clone III; Böhringer (BI) Clone III
B8: TPP-30789 (antibody, human IgG1, kappa, V domains shown)
VH: B5 VH with T28P
VL: B5 VL
notes: prior art, WO 2020/225400; also called BI clone II; Böhringer (BI) Clone II
B9: TPP-11489 (antibody, human IgG1, lambda)
heavy: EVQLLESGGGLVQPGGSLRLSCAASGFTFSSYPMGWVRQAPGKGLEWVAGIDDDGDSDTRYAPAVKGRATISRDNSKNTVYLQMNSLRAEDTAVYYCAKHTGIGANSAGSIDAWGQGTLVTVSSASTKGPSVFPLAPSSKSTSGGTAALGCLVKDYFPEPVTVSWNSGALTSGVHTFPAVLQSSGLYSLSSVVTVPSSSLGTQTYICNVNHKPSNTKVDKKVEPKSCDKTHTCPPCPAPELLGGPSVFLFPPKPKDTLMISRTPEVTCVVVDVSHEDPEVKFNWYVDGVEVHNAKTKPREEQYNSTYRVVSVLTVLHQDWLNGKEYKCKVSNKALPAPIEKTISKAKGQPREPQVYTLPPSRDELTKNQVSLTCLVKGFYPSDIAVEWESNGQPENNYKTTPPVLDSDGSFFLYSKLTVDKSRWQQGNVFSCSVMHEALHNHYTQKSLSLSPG
light: SYELTQPPSVSVSPGQTARITCSGGGSYTGSYYYGWYQQKPGQAPVTVIYYNNKRPSDIPERFSGSLSGTTNTLTISGVQAEDEADYYCGSADNSGDAFGTGTKVTVLGQPKAAPSVTLFPPSSEELQANKATLVCLISDFYPGAVTVAWKADSSPVKAGVETTTPSKQSNNKYAASSYLSLTPEQWKSHRSYSCQVTHEGSTVEKTVAPTECS
notes: human IgG1; also called Chiome; Chiome Prior Art (hIgG1)

Target: T1, Cyno Semaphorin3A-Sema Domain, TPP-19122
Assay: SPR, captured antibody, Sema3A domain analyte
Description: (§1) To assess the binding activity of anti-Sema3A antibodies binding assays were conducted using surface plasmon resonance (SPR). Binding assays were performed on a Biacore T200 instrument (Cytiva) at 25° C. using assay buffer HBS P+, 300 mM NaCl, 0.75 mM CaCl₂, 2.5 mM MgCl₂, 1 mg/ml BSA, 0.05% NaN₃. Antibodies were captured via anti-human Fc IgGs (“Human antibody capture kit”, Order No. BR100839, Cytiva) covalently amine coupled to a Series S CM5 sensor chip (Cytiva). The amine coupling was carried out according to the manufacturer's instructions using 1-ethyl-3-(3-dimethylaminopropyl) carbodiimide hydrochloride (EDC), N-hydroxysuccinimide (NHS) and ethanolamine HCl, pH 8.5 (“Amine Coupling Kit” BR-1000-50, Cytiva.). Human, mouse, cynomolgus, rat, dog and pig monovalent Sema3A domain were used as analytes in a concentration series from 0.024-3.125 nM in multi cycle kinetics mode. The sensor surface was regenerated with glycine pH 2.0 after each antigen injection. Obtained sensorgrams were double referenced (subtraction of reference flow cell signal and buffer injection) and were fitted to a 1:1 Langmuir binding model using the Biacore T200 Evaluation software obtaining the experimental fitted RMax value. To calculate the binding activity first the theoretical RMax needs to be calculated according to equation 1: […]
(§2) Binding activity was determined by dividing the experimental determined RMax by the theoretical calculated RMax according to equation 2: […]

| Binding Activity [%] | Binder |
| --- | --- |
| 106 | B1 |
| 139 | B2 |
| 53 | B3 |
| 104 | B4 |
| 107 | B5 |
| 107 | B6 |
| 92 | B7 |
| 103 | B8 |
| 13 | B9 |

Each binder was assayed against T2, Mouse Semaphorin3A-Sema Domain, … (assay: SPR, captured antibody, Sema3A domain analyte).
Description: as §1, §2

| Binding Activity [%] | Binder |
| --- | --- |
| 108 | B1 |
| 11 | B2 |
| 57 | B3 |
| 106 | B4 |
| 108 | B5 |
| 107 | B6 |
| 93 | B7 |
| 103 | B8 |
| 118 | B9 |

Each binder was assayed against T3, Human Semaphorin3A-Sema Domain, … (assay: SPR, captured antibody, Sema3A domain analyte).
Description: as §1, §2

| Binding Activity [%] | Binder |
| --- | --- |
| 107 | B1 |
| 112 | B2 |
| 55 | B3 |
| 10 | B4 |
| 107 | B5 |
| 107 | B6 |
| 93 | B7 |
| 106 | B8 |
| 38 | B9 |

Target: T4, Pig Semaphorin3A-Sema Domain, TPP-20176
Assay: SPR, captured antibody, Sema3A domain analyte
Description: as §1, §2

| Binding Activity [%] | Binder |
| --- | --- |
| 107 | B1 |
| 111 | B2 |
| 60 | B3 |
| 103 | B4 |
| 107 | B5 |
| 105 | B6 |
| 92 | B7 |
| 103 | B8 |
| 77 | B9 |

From patent US20240254222A1 (Bayer, published 2024)
